To fix the notation:
T1: M. tuberculosis HddA enzyme (MtbHddA) (M. tuberculosis, UniProt O53637 1-386)
T1 sequence: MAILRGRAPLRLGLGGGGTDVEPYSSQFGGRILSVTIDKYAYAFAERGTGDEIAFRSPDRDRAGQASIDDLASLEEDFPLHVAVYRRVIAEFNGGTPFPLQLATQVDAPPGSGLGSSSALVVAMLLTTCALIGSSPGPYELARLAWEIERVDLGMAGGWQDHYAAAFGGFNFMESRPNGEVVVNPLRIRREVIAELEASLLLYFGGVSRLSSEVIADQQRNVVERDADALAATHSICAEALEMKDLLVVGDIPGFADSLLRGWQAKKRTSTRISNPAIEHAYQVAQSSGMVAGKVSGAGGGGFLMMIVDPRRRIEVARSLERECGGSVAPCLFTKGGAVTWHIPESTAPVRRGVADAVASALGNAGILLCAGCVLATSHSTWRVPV

B1: M. tuberculosis GmhB enzyme (MtbGmhB) (enzyme)
chain: MVAERAGHQWCLFLDRDGVINRQVVGDYVRNWRQFEWLPGAARALKKLRAWAPYIVVVTNQQGVGAGLMSAVDVMVIHRHLQMQLASDGVLIDGFQVCPHHRSQRCGCRKPRPGLVLDWLGRHPDSEPLLSIVVGDSLSDLELAHNVAAAAGACASVQIGGASSGGVADASFDSLWEFAVAVGHARGERG
B2: M. tuberculosis sedoheptulose-7-phosphate isomerase (MtbGmhA), wild type (enzyme)
chain: MCTARTAEEIFVETIAVKTRILNDRVLLEAARAIGDRLIAGYRAGARVFMCGNGGSAADAQHFAAELTGHLIFDRPPLGAEALHANSSHLTAVANDYDYDTVFARALEGSARPGDTLFAISTSGNSMSVLRAAKTARELGVTVVAMTGESGGQLAEFADFLINVPSRDTGRIQESHIVFIHAISEHVEHALFAPRQ
notes: also called Rv0113; not shown: His6, N-terminal, kept

The target in series [1] is T1, M. tuberculosis HddA enzyme (MtbHddA). The experiment in a line: SPR. The note with it: both partners purified.
Series [2] has as its target B2. The experiment in a line: SPR; MtbGmhA immobilised (legend of Figure 4) on a gold surface activated by EDC-NHS; 25 °C; steady-state fit, Langmuir 1:1 model. The note with it: both partners purified. A general note: In SPR one partner is held on a chip, and binding of the other changes the refractive index at the surface.
For series [3], the target named is T1, M. tuberculosis HddA enzyme (MtbHddA). The series is described as above. The note with it: both partners purified.
Series [4] concerns the molecule itself. The experiment in a line: SEC.

The term Kd denotes the constant that tells how readily two partners part at equilibrium. Lower therefore signals a tighter complex. Usually stoichiometry N stands for a count of units in the complex or per binding partner.

Turning to B1, the Kd is 20 ± 0.95 µM in series [1] and 4.9 ± 0.11 µM in series [2].
On to B2, for which the affinity in series [3], expressed as Kd, was 8.45 ± 0.45 µM. For the same molecule, the “stoichiometry N” value in series [4] came out at 4.
